Results on 2 molecules are retold here after publication PMC11025326 (Journal of Bacteriology, 2024).

Sequences and labels used below:
B1: LpxC^Δ293-305-S-Tag (enzyme)
chain: MIKQRTLKRIVQATGVGLHTGKKVTLTLRPAPANTGVIYRRTDLNPPVDFPADAKSVRDTMLCTCLVNEHDVRISTVEHLNAALAGLGIDNIVIEVNAPEIPIMDGSAAPFVYLLLDAGIDELNCAKKFVRIKETVRVEDGDKWAEFRPYNGFTLDFTIDFNHPAIDSSSQRYAMNFSADAFMRQISRARTFGFMRDIEYLQSRGLCLGGSFDCAIVVDDYRVLNEDGLRFEDEFVRHKMLDAIGDLFMCGHNIIGAFTAYKSGHALNNKLLQAVLAKQEAWEFVTFQDDAE
notes: not shown: S-tag, C-terminal, kept
B2: 6xHisN-LapB^ΔTM (LapB^Δ1-22aa) (domain or fragment, S. Typhimurium, UniProt Q7CQG6 23-389, looked up)
chain: SAQQTKQDEANRLSRDYVAGVNFLLSNQQDKAVDLFLDMLKEDTGTVEAHLTLGNLFRSRGEVDRAIRIHQTLMESASLTYEQRLLAVQQLGRDYMAAGLYDRAEDMFNQLTDETEFRVGALQQLLQIYQLTSDWQKAIEVAERLVKLGKDKQRIEIAHFYCELALQQMGNDDMDRAMALLKKGAAADKNSARVSIMMGRVYMARGDYAKAVESLQRVIVQDKELVSETLEMLQTCYQQLGKNAEWAEFLRRAVEENTGAGAELMLADILEAREGSDAAQVYITRQLQRHPTMRVFHKLMDYHLNEAEEGRAKESLMVLRDMVGEQVRSKPRYRCQKCGFTAYTLYWHCPSCRAWSTIKPIRGLDGQ
notes: LPS assembly protein B (LapB/YciM), S. Typhimurium; transmembrane segment (residues 1-22) removed and replaced by an N-terminal polyhistidine tag; By calibrated gel filtration a homotrimer when alone, and two copies in the complex with one LpxC; also called 6xHisNLapB^Δ1-22; LapB cytosolic domain; source: E. coli BL21 (DE3), pACYC-Duet1, IPTG; in soluble lysate for the microscale co-purification; …

The target of data set [1] is B2. Nature of the data set: SEC. As to conditions: both partners purified.
Data set [2] concerns the molecule itself. As to the kind of experiment: SEC; calibrated Superdex 200 Increase 10/300 GL; purified LapB^ΔTM alone, 0.5 mg/mL; 20 mM HEPES, 300 mM NaCl, 10% glycerol, 1 mM DTT, pH 7.0. A general note: SEC sorts molecules by how far they enter the pores of the column.
Data set [3] deals with the molecule itself. Nature of the data set: SEC; calibrated Superdex 200 Increase 10/300 GL; co-purified LapB^ΔTM-LpxC^Δ293-305 complex, 0.5 mg/mL; 20 mM HEPES, 300 mM NaCl, 10% glycerol, 1 mM DTT, pH 7.0.

As usually defined, the stoichiometry N is a count of units in the complex or per binding partner. As for B1, the “stoichiometry N” value in data set [1] is 0.5 LpxC per LapB chain.
Turning to B2, the “stoichiometry N” value in data set [2] stood at 3; in data set [3] it was 2.
